Article PMC11039692, “SRY-Box transcription factor 9 triggers YAP nuclear entry via direct interaction in tumors” (Signal Transduction and Targeted Therapy, 2024)

Test system: FLAG-YAP
Test: In vitro protein pull-down assay
Format: binding
Conditions: recombinant GST-SOX9 20 μM and FLAG-YAP 20 μM, FLAG beads, overnight at 4 °C
Description: FLAG-YAP protein (20 μM) purified from SF9 was incubated with 20 μM GST-SOX9 protein (Abcam, ab131911), GST protein, or blank control in the presence of FLAG beads (Sigma-Aldrich, A2220) overnight at 4 °C. Following this, the beads were washed two times in binding and wash buffer (20 mM Tris [pH 8.0], 150 mM NaCl, 0.5% NP40, 0.5% TritonX-100, 1 mM DTT, and 10% glycerol), and one wash with high salt buffer (20 mM Tris [pH 8.0], 250 mM NaCl, 0.5% NP40, 0.5% TritonX-100, 1 mM DTT, and 10% glycerol). The slurry was boiled with SDS buffer and then subjected to immunoblot.

B1: SOX9: recombinant GST-SOX9 protein (Abcam, ab131911) (protein)
chain: MNLLDPFMKMTDEQEKGLSGAPSPTMSEDSAGSPCPSGSGSDTENTRPQENTFPKGEPDLKKESEEDKFPVCIREAVSQVLKGYDWTLVPMPVRVNGSSKNKPHVKRPMNAFMVWAQAARRKLADQYPHLHNAELSKTLGKLWRLLNESEKRPFVEEAERLRVQHKKDHPDYKYQPRRRKSVKNGQAEAEEATEQTHISPNAIFKALQADSPHSSSGMSEVHSPGEHSGQSQGPPTPPTTPKTDVQPGKADLKREGRPLPEGGRQPPIDFRDVDIGELSSDVISNIETFDVNEFDQYLPPNGHPGVPATHGQVTYTGSYGISSTAATPASAGHVWMSKQQAPPPPPQQPPQAPPAPQAPPQPQAAPPQQPAAPPQQPQAHTLTTLSSEPGQSQRTHIKTEQLSPSHYSEQQQHSPQQIAYSPFNLPHYSPSYPPITRSQYDYTDHQNSSSYYSHAAGQGTGLYSTFTYMNPAQRPMYTPIADTSGVPSIPQTHSPQHWEQPVYTQLTRP
In the case of B1, the “direct interaction with YAP (pull-down)” value is reported as “demonstrated the direct interaction between SOX9 and YAP”.
